Tested on: MS2 coat protein
Assay: apparent KD of MS2 coat protein; designed switch direction (-1 OFF switch, 1 ON switch): 1; higher = weaker reporter binding
Summary of the method: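 For each design, the apparent KD is the median over clusters of curves fitted to normalised cluster fluorescence. Clusters held RNA switches with common flanks, transcribed on Illumina chips by stalled E. coli RNA polymerase. These were titrated with SNAP-549-labelled MS2 coat protein, doubling from 0.7 or 1.5 nM to 3 µM, without input, with 200 uM small-molecule ligand, or with an oligonucleotide input.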

[1] = input ligand: microRNA oligo, concentration not stated
[2] = Eterna round: R95, input ligand: FMN 200 uM
[3] = Eterna round: R95, input ligand: microRNA oligo, concentration not stated
[4] = Eterna round: R95, input ligand: none

Sequence	apparent KD of MS2 coat protein (input ligand: FMN 200 uM) [nM]	apparent KD of MS2 coat protein [1] [nM]	apparent KD of MS2 coat protein (input ligand: none) [nM]	apparent KD of MS2 coat protein [2] [nM]	apparent KD of MS2 coat protein [3] [nM]	apparent KD of MS2 coat protein [4] [nM]
AUUAUUUAUGCAGGAUAUGAUUAACAUGAGGAUCACCCAUGUGGUGUUGUGAGUAAGGAGAGUGAUCAGAAGGGCAUUUUUUGU [JMF's solution 54] (Eterna round: R96, puzzle: Same State NG 2)	713	531	464	–	–	–
AUUAUAAAUGCAGGAUAUGAUUAACAUGAGGAUCACCCAUGUGGUGUUGUGAGUAAGGAGAGUGAUCAGAAGGGCAUUUUUUUU [JMF's solution 24] (Eterna round: R96, puzzle: Same State NG 2)	620	343	555	–	–	–
GUAAAACAUGAGGAUCACCCAUGUCAUCUAAGUCGAGGAUAUGGGAAUUAAUUAAUUAAACCAGAAGGCGAAAUUG [Mat - Same State 1 - D97] (puzzle: Same State 1)	–	–	–	44.6	844	606
UGAGCCGGCACUGAGGAUAUUCAUAAUAAAACAUGAGGAUCACCCAUGUAGGCCAGAAGGCCUUGGGAGAAGGCAGGUCGGCUCA [Mat - Same State 2 - Mod of UCT - D71] (puzzle: Same State 2)	–	–	–	16.7	134	247
AGUCCAGCCUGAGCUGGACAAAAGCAUGUACAUGAGGAUCACCCAUGUUCAUGUACAAGCUUUUUGCUCGUCUUGGA [salish99_208a_r3_103x] (puzzle: Sensor for hsa-mir-208a)	–	–	–	350	16.2	505
GCACUCCUAGGAGCUGCGACAUGAGGAUCACCCAUGUAAUCACAGGAUAUGCAAUUCUGAAUUUUGCAGAAGGGUGAUAGGAAA [Zausorbi] (Eterna round: R96, puzzle: Same State NG 3)	413	270	263	–	–	–
UUCCCAUCGGGAGGAUAUGGUGCCUUAUUGGUGCUAGAAGGUCCAACAUGAGGAUCACCCAUGUGGGAGUGGUCUAAUGACCUC [SS NG10LRO06] (Eterna round: R96, puzzle: Same State NG 1)	338	204	355	–	–	–
AGAGGAGGCGCAGGAUAUACGACGGAGGACGUGGUAGAAGGGUGCAUGCGAAAACAUGAGGAUCACCCAUGUACCGCGCGACGA [ssng1 c] (Eterna round: R96, puzzle: Same State NG 1)	816	30.1	126	–	–	–
AUUUAACAAGCUUUUUGCUCGUCUUAUAAACAUGAGGAUCACCCAUGUAAUAGCGUGAGAGUAAAUAUUUAAAUAAU [JMF 93] (puzzle: Sensor for hsa-mir-208a)	–	–	–	14.5	48.3	11.1
UGUUGUAUUACAGGAUAUCUAUUAGAUUUAUUUAGAGAAGGGUAUUCACAUGAGGAUCACCCAUGUAUAUACGAGGAAGUUGUG [JMF's solution 86] (Eterna round: R96, puzzle: Same State NG 1)	–	40.2	–	–	–	–
GUAAUACAUGAGGAUCACCCAUGUCAAUGUAGUCGAGGAUAUGGGUAGCUAUGAGGCUUACUAGAAGGCGACGAGC [Same State 1 - Mod of Vinnie Teenbexe v.5] (Eterna round: R96, puzzle: Same State 1)	46.5	208	249	–	–	–
AUUACUAACAUAGGAUAUCAUGCGAAAAUUGCGUGAGAAGGGUGGACACUGUCUUUCUCGGAGCACAUGAGGAUCACCCAUGUG [SameState NG1 #69] (Eterna round: R96, puzzle: Same State NG 1)	81.4	41.5	65	–	–	–
GUAGAUAUAACGGAGGAUAUUCAAUGAGAGACAUGAGGAUCACCCAUGUAAGAGUGAGAUGAUAGGAAGAAGGCUGAGAGAGAUG [Altered State 2-9 - Jieux - Same State 2] (puzzle: Same State 2)	–	–	–	140	139	102
GAGCCAGUCCGAGGAUAUUCGUAGUACCACAUGAGGAUCACCCAUGUGGGCUCAGAAGAGCCCUUGGAGAAGGCGGGCUGGCUC [SS-NG2-LRO20] (Eterna round: R96, puzzle: Same State NG 2)	9.67	5.99	12.4	–	–	–
GGUAGGUUACUACCAAACAUGAGGAUCACCCAUGUAAAUGGGAAGGAUAUGGUACCUAUUUGGUACCAGAAGGUCUAAUUAAUU [JL Fiskers NG3ss - 2 mod 1] (Eterna round: R96, puzzle: Same State NG 3)	332	479	553	–	–	–
GGACGUCAUCUCAAUGAUUAAACAUGAGGAUCACCCAUGUCACAGGAUAUGGAUCCUAAUUGGAUCCAGAAGGGUGUGACGUCC [Fiskers NG3ss - 44] (Eterna round: R96, puzzle: Same State NG 3)	121	98.2	148	–	–	–

Sequence	apparent KD of MS2 coat protein (input ligand: FMN 200 uM) [nM]	apparent KD of MS2 coat protein [1] [nM]	apparent KD of MS2 coat protein (input ligand: none) [nM]	apparent KD of MS2 coat protein [2] [nM]	apparent KD of MS2 coat protein [3] [nM]	apparent KD of MS2 coat protein [4] [nM]
UCGUCGACACAAAUUCGACAACAUGAGGAUCACCCAUGUCCACAGGAUAUCGGCAGCUUAUGCUCCGAGAAGGGUGGUUAGAUU [Beage Mod] (Eterna round: R96, puzzle: Same State NG 3)	435	664	605	–	–	–
GGUGCCAAUAAAGCCUACAUGAGGAUCACCCAUGUAUGUAGGUAGGAUAUCGUUUGCUUUGCAAACGAGAAGGGCCUAGGCACC [JL SSNG3 1.20] (Eterna round: R96, puzzle: Same State NG 3)	22.5	40.2	48.3	–	–	–
AAUUGUUUCUGAGGAUAUCAGUAGUAUGCUUUUUGAGAAGGCAGUACAUGAGGAUCACCCAUGUUGUGGUUUGAUAGAAUGAUA [JR_SSNG1_Sub004] (Eterna round: R96, puzzle: Same State NG 1)	–	130	–	–	–	–
CUUUAUCACUAUACAUGAGGAUCACCCAUGUUAUCAUCAUGAGAGGAUAUCGUAUUUGGAUUUUUCGAGAAGGCUCUUUUGUAU [JR_SSNG3_Sub076] (Eterna round: R96, puzzle: Same State NG 3)	–	90.4	–	–	–	–
GGUGCCAAAUAAGCCUACAUGAGGAUCACCCAUGUAUGUAGGCAGGAUAUCGUAUGCAAAGCAUACGAGAAGGGCCUAGGCACC [Mat - Same State NG 3 - JL Mod - D63] (Eterna round: R96, puzzle: Same State NG 3)	18.8	23.7	41.3	–	–	–
AGCCGAGACUGAGGAUAUUUGUAUCUACAUGAGGAUCACCCAUGUAGCGUCACGUGGUAGUGAUCGAAGAAGGCAGCUCGGCGC [MOD3 of Omei's SS(NG)2 Cv2] (Eterna round: R96, puzzle: Same State NG 2)	11.1	11.2	21.9	–	–	–
GCUAGGAAAUAAGCCAACAUGAGGAUCACCCAUGUAUGUUGGUAGGAUAUCGUAUGCAAAGCAUACGAGAAGGGCUAACCUAGC [Mat - Same State NG 3 - JL Mod - D71] (Eterna round: R96, puzzle: Same State NG 3)	69.5	62.8	76	–	–	–
AAGUAACAUGAGGAUCACCCAUGUGAGGUGAGCGUAGGAUAUCGAGAAGGAAGGGUGGAGCGAGAAGGACGAGGGA [JR_SS1_Sub0101] (puzzle: Same State 1)	–	–	–	565	463	389
AGGAAACAUGAGGAUCACCCAUGUAUCGAGCCGCGAGGAUAUGGGUAUCAAAGGCGAGGAUCAGAAGGUGCAGGCG [Eseddierve] (puzzle: Same State 1)	–	–	–	235	54.9	153
GUAAAACAUGAGGAUCACCCAUGUAAUAAUAUGGGAGGAUAUCAGAUUUAAUUUAAUUUAUGAGAAGGCCUAAAUU [Mat - Same State 1 - Mod of Eli - D62] (puzzle: Same State 1)	–	–	–	43.4	488	596
AAAAGAAACAUGUACCUGAGUACAUGAAAACAUGAGGAUCACCCAUGUAAUAAGUGGGUGUUUUGUCUUUGUCUUAU [JL pocket 34, mod 5] (Eterna round: R96, puzzle: Sensor for hsa-mir-208a)	50.8	119	51.8	–	–	–
ACGCAGCUGGGUAAGGAUAUCGGUGGUAAAACAUGAGGAUCACCCAUGUCCGAAGCUCGGACCUCCGAGAAGGUGCCCGGCUGCG [Soinraesar Omei Mod 7] (puzzle: Same State 2)	–	–	–	–	6.58	–
CUACUACAUGAGGAUCACCCAUGUUGUAGUGAUGCAGGAUAUGUGUGACCAGAAGAUGAAACAGAAGGGCAAAGAA [JR_SS!_Sub002] (puzzle: Same State 1)	–	–	–	13.5	15.9	15.2
ACCCAAAGUAUAUGGGAGCAAGCUUUUUAACAUGAGGAUCACCCAUGUACUCGUCUUAUAAGCAGUCGAAAGACUGC [Sensor 100 - 4] (puzzle: Sensor for hsa-mir-208a)	–	–	–	612	12.4	814
ACAUGAGAUAGAGGAUAUGUUGUACCUACAUGUGACAUGAGGAUCACCCAUGUGGUAAGUAUGAUACAGAAGGCUAAGAUAUGU [Equivalance 60 - Jieux - Same State NG 2] (Eterna round: R96, puzzle: Same State NG 2)	16.5	19.1	30.1	–	–	–
